Test results as given in the supplement of paper PMC10567573.

B1: SMTNL2 (parent)
chain: QKNFELAFTMAENLANCERLIEVE
B2: ZNF263 (parent)
chain: FGGNPRFLSLHRAHLGEEAHKCLE

Variants of: B1
Experiment: protein stability index of a GFP-peptide fusion (GPS, HEK-293T) (PSI 1-6); higher = more stable
Conditions: c terminus: a fixed tail appended
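Further: lentivirally expressed fusions sorted by FACS into six bins by GFP to DsRed ratio, PSI derived from sequencing read proportions per bin multiplied by bin number.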

First: QKRFELAFTMAENLANCERLIEVE
Second: QKDFELAFTMAENLANCERLIEVE
The protein stability index of the first is lower: 1.76 for the first, 3.28 for the second.

Going from QKEFELAFTMAENLANCERLIEVE to QKQFELAFTMAENLANCERLIEVE, the protein stability index rises from 1.61 to 1.81.

Going from QKYFELAFTMAENLANCERLIEVE to QKMFELAFTMAENLANCERLIEVE, the protein stability index rises from 1.96 to 3.62.

First: QKTFELAFTMAENLANCERLIEVE
Second: QKWFELAFTMAENLANCERLIEVE
The protein stability index of the first is lower: 2.09 for the first, 3.6 for the second.

First: QKIFELAFTMAENLANCERLIEVE
Second: QKVFELAFTMAENLANCERLIEVE
The protein stability index of the first is higher: 3.48 for the first, 3.1 for the second.

Compared with QKSFELAFTMAENLANCERLIEVE, QKNFKLAFTMAENLANCERLIEVE is higher in protein stability index: 1.78 for the first, 2.24 for the second.

Compared with QKNFLLAFTMAENLANCERLIEVE, QKNFQLAFTMAENLANCERLIEVE is lower in protein stability index: 1.72 for the first, 1.25 for the second.

Compared with QKNFALAFTMAENLANCERLIEVE, QKNFDLAFTMAENLANCERLIEVE is lower in protein stability index: 1.62 for the first, 1.59 for the second.

Compared with QKNFTLAFTMAENLANCERLIEVE, QKNFNLAFTMAENLANCERLIEVE is higher in protein stability index: 1.94 for the first, 2.96 for the second.

Compared with QKNFCLAFTMAENLANCERLIEVE, QKNFRLAFTMAENLANCERLIEVE is higher in protein stability index: 2.87 for the first, 3.01 for the second.

First: QKNFGLAFTMAENLANCERLIEVE
Second: QKNFSLAFTMAENLANCERLIEVE
The protein stability index of the first is higher: 2.52 for the first, 1.39 for the second.

Compared with QKNFHLAFTMAENLANCERLIEVE, QPNFELAFTMAENLANCERLIEVE is higher in protein stability index: 1.96 for the first, 2.24 for the second.

First: QSNFELAFTMAENLANCERLIEVE
Second: QMNFELAFTMAENLANCERLIEVE
The protein stability index of the first is higher: 1.76 for the first, 1.7 for the second.

Going from QINFELAFTMAENLANCERLIEVE to QDNFELAFTMAENLANCERLIEVE, the protein stability index falls from 2.71 to 2.51.

First: QHNFELAFTMAENLANCERLIEVE
Second: QRNFELAFTMAENLANCERLIEVE
The protein stability index of the first is lower: 1.13 for the first, 2.34 for the second.

Compared with QGNFELAFTMAENLANCERLIEVE, QCNFELAFTMAENLANCERLIEVE is higher in protein stability index: 1.74 for the first, 1.77 for the second.

Going from QVNFELAFTMAENLANCERLIEVE to QTNFELAFTMAENLANCERLIEVE, the protein stability index falls from 1.67 to 1.03.

Going from QLNFELAFTMAENLANCERLIEVE to QENFELAFTMAENLANCERLIEVE, the protein stability index rises from 1.78 to 1.84.

Compared with QKNRELAFTMAENLANCERLIEVE, QKNIELAFTMAENLANCERLIEVE is lower in protein stability index: 3.06 for the first, 2.53 for the second.

First: QKNVELAFTMAENLANCERLIEVE
Second: QKNTELAFTMAENLANCERLIEVE
The protein stability index of the first is lower: 2.87 for the first, 3.51 for the second.

Compared with QKNAELAFTMAENLANCERLIEVE, QKNKELAFTMAENLANCERLIEVE is higher in protein stability index: 2.45 for the first, 4.05 for the second.

First: QKNPELAFTMAENLANCERLIEVE
Second: QKNSELAFTMAENLANCERLIEVE
The protein stability index of the first is higher: 4.09 for the first, 3.4 for the second.

First: QKNDELAFTMAENLANCERLIEVE
Second: QKNMELAFTMAENLANCERLIEVE
The protein stability index of the first is higher: 3.72 for the first, 2.31 for the second.

Going from QKNNELAFTMAENLANCERLIEVE to QKNHELAFTMAENLANCERLIEVE, the protein stability index falls from 3.27 to 1.98.

First: QKNGELAFTMAENLANCERLIEVE
Second: QKNEELAFTMAENLANCERLIEVE
The protein stability index of the first is higher: 3.73 for the first, 2.94 for the second.

Going from QKNYELAFTMAENLANCERLIEVE to QKNFEFAFTMAENLANCERLIEVE, the protein stability index falls from 1.98 to 1.91.

Compared with QKNFEGAFTMAENLANCERLIEVE, QKNFEAAFTMAENLANCERLIEVE is higher in protein stability index: 3.23 for the first, 3.32 for the second.

Going from QKNFEEAFTMAENLANCERLIEVE to QKNFEHAFTMAENLANCERLIEVE, the protein stability index rises from 2.46 to 2.55.

Compared with QKNFEIAFTMAENLANCERLIEVE, QKNFEKAFTMAENLANCERLIEVE is higher in protein stability index: 2.12 for the first, 2.65 for the second.

Going from QKNFENAFTMAENLANCERLIEVE to VKNFELAFTMAENLANCERLIEVE, the protein stability index falls from 2.91 to 1.54.

Going from GKNFELAFTMAENLANCERLIEVE to TKNFELAFTMAENLANCERLIEVE, the protein stability index rises from 1.2 to 1.26.

Compared with YKNFELAFTMAENLANCERLIEVE, LKNFELAFTMAENLANCERLIEVE is lower in protein stability index: 1.97 for the first, 1.86 for the second.

Going from NKNFELAFTMAENLANCERLIEVE to PKNFELAFTMAENLANCERLIEVE, the protein stability index rises from 1.67 to 2.56.

Going from DKNFELAFTMAENLANCERLIEVE to KKNFELAFTMAENLANCERLIEVE, the protein stability index rises from 1.28 to 2.58.

For FKNFELAFTMAENLANCERLIEVE, the protein stability index was 3.06.

Variants of: B2
Experiment: as above
Conditions: c terminus: a fixed tail appended

Compared with FRGNPRFLSLHRAHLGEEAHKCLE, FKGNPRFLSLHRAHLGEEAHKCLE is lower in protein stability index: 3.66 for the first, 2.87 for the second.

Going from FDGNPRFLSLHRAHLGEEAHKCLE to FYGNPRFLSLHRAHLGEEAHKCLE, the protein stability index falls from 3.68 to 2.32.

Compared with FGGNPRFLSLHRWHLGEEAHKCLE, FGGNPRFLSLHREHLGEEAHKCLE is lower in protein stability index: 1.81 for the first, 1.66 for the second.

Going from FGGNPRFLSLHRCHLGEEAHKCLE to FGGNPRFLSLHRDHLGEEAHKCLE, the protein stability index rises from 1.71 to 1.81.

Compared with FGGNPRFLSLHRIHLGEEAHKCLE, FGGNPPFLSLHRAHLGEEAHKCLE is higher in protein stability index: 1.35 for the first, 2.73 for the second.

First: FGGNPKFLSLHRAHLGEEAHKCLE
Second: FGGNPLFLSLHRAHLGEEAHKCLE
The protein stability index of the first is higher: 2.77 for the first, 2.62 for the second.

First: FGGNPTFLSLHRAHLGEEAHKCLE
Second: FGGNPAFLSLHRAHLGEEAHKCLE
The protein stability index of the first is lower: 2.89 for the first, 3.22 for the second.

Going from FGGNPDFLSLHRAHLGEEAHKCLE to FGGNPRFKSLHRAHLGEEAHKCLE, the protein stability index rises from 1.83 to 2.53.

First: FGGNPRFQSLHRAHLGEEAHKCLE
Second: FGGNPRFSSLHRAHLGEEAHKCLE
The protein stability index of the first is lower: 1.66 for the first, 2.03 for the second.

Going from FGGNPRFESLHRAHLGEEAHKCLE to FGGNPRFLILHRAHLGEEAHKCLE, the protein stability index rises from 2.54 to 2.59.

First: FGGNPRFLELHRAHLGEEAHKCLE
Second: FGGNPRFLQLHRAHLGEEAHKCLE
The protein stability index of the first is lower: 1.97 for the first, 2.9 for the second.

First: FGGNPRFLDLHRAHLGEEAHKCLE
Second: FGGNPRFLSLHHAHLGEEAHKCLE
The protein stability index of the first is lower: 1.34 for the first, 1.71 for the second.

In the case of FGGNPRFLSLHNAHLGEEAHKCLE, the protein stability index is reported as 2.49.
